According to patent US20110201104A1 (SUNGKYUNKWAN UNIVERSITY FOUNDATION FOR CORPORATE …, published 2011):

Target: the molecule itself
Assay: size exclusion chromatography (HPLC, TSK G3000SWXL), phosphate buffer pH 7.4; self-association
Description: 0.02 ml of a protein (conc. 5-20 μM) was injected into a TSK G3000SWXL column (TosoHaas, Japan) and a phosphate buffer solution (50 mM sodium phosphate/150 mM NaCl, pH 7.4) was flowed therein at a flow rate of 0.7 ml/min and the chromatogram of the proteins was obtained from the absorbance at 280 nm.

B1: 3D8 VH protein (heavy-chain variable domain of anti-DNA antibody 3D8) (other)
VH: EVQLQQSGPELVKPGASVKMSCKASGYTFTSYVMHWVKQKPGQGLEWIGYINPYNDGTKYNEKFKGKATLTSDKSSSTAYMELSSLTSEDSAVYYCARGAYKRGYAMDYWGQGTSVTVSS
notes: Isolated single VH domain of mouse (MRL-lpr/lpr) IgG2a/kappa antibody 3D8; It was expressed in E. coli from vector pIg20H-3D8 VH and purified on IgG-sepharose
- binding result: no binding (tested: 5-20 µM)

B2: 3D8 VL protein (light-chain variable domain of anti-DNA antibody 3D8) (other)
VL: DIVMSQSPSSLAVSAGEKVTMSCKSSQSLFNSRTRKNYLAWYQQKPGQSPKLLIYWASTRESGVPDRFTGSGPGTDFTLTISSVQAEDLAVYYCKQSYYHMYTFGSGTKLEIKRAD
notes: Isolated single VL domain of mouse (MRL-lpr/lpr) IgG2a/kappa antibody 3D8; It was expressed in E. coli from vector pIg20L-3D8 VL and purified on IgG-sepharose; This domain was immobilized on the CM5 chip in the SPR assay
- binding result: no binding (tested: 5-20 µM)
